Test results: patent publication US20260258465, “NUCLEIC ACID-GUIDED DNA SYNTHESIS” (The Trustees of Columbia University in the City of New York, published 2026)

Biological target: T1, KpnDRT2 reverse transcriptase (Klebsiella pneumoniae)
T1 chain: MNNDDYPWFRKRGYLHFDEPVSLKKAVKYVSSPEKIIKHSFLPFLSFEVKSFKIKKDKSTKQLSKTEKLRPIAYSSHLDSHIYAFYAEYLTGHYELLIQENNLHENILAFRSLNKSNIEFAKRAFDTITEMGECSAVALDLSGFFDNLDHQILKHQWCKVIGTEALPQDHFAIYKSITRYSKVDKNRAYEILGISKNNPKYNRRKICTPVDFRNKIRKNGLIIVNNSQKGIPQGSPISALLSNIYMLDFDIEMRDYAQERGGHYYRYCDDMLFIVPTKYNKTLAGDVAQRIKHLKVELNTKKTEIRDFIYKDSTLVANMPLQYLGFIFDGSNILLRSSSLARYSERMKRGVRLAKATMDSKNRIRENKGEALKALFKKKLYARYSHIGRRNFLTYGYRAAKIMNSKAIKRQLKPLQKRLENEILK
Experiment: EMSA; 20 mM HEPES pH 7.5, 5 mM MgCl2, 200 mM NaCl, 37 C
Conditions: tags: N-terminal His6-GST removed by TEV; C-terminal StrepII; stem-loops SL1-SL8
Method: To test binding of the ncRNA by the RT, the purified ncRNA was mixed with increasing amounts of the RT in reaction buffer (20 mM HEPES pH 7.5, 5 mM MgCl₂, 5% glycerol, 200 mM NaCl, and 1 mM DTT). Samples were incubated at 37° C. for 15 minutes and analyzed by electrophoretic mobility shift assay (EMSA). The shift in mobility at higher concentrations of RT enzyme indicates binding of the ncRNA by the RT (FIG. 14A).

B1: KpnDRT2 ncRNA WT (ssRNA)
RNA: GCCCUAAACAAAGGUUUAGGGGUAUUGUACAGGUUGUCAAGCCUCCCACAGGUCUUGGUGAAACCAAUCACUGUGACGACGGUAAGCAACACUUGGAUGAUAUUCAUAAUUGACUCCACGCUACUGAUUACAUUAUACAGCAUAUCUAACAUUUGCGGCGAGGUUCACAAUUUGUAUUUAGGUACUGAUUGUGGAUGAGAAGGUUGGAGAAAGACCACUUGGUUAAGCCGGAGGAUGUGUCCUAGAAUUGUCGCUAUUCUGUCAUCCUCCGGUUUUGCUAA
binding result: binds
